This is an account of results in patent US20220089784A1 (University of California, published 2022).

Assay [1] concerns the target T1, BoNT/B HC (C-terminal domain of the BoNT/B heavy chain, recombinant) (Clostridium botulinum, UniProt P10844 853-1291).
T1 sequence: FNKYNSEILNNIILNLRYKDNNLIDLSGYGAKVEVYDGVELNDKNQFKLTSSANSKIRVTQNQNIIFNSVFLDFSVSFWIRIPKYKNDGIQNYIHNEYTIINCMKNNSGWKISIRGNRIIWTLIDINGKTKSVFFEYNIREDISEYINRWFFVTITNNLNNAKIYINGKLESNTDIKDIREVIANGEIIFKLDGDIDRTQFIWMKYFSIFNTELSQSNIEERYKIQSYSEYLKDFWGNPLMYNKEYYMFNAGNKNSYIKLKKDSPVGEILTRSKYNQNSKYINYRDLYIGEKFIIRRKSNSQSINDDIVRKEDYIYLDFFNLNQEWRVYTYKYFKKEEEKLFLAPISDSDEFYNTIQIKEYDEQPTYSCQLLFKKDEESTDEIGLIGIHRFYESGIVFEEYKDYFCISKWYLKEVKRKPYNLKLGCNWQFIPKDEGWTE
Nature of the assay: yeast scFv FACS.

A further assay has as its target T2, BoNT/B1 (Clostridium botulinum, UniProt P10844 2-1291).
T2 sequence: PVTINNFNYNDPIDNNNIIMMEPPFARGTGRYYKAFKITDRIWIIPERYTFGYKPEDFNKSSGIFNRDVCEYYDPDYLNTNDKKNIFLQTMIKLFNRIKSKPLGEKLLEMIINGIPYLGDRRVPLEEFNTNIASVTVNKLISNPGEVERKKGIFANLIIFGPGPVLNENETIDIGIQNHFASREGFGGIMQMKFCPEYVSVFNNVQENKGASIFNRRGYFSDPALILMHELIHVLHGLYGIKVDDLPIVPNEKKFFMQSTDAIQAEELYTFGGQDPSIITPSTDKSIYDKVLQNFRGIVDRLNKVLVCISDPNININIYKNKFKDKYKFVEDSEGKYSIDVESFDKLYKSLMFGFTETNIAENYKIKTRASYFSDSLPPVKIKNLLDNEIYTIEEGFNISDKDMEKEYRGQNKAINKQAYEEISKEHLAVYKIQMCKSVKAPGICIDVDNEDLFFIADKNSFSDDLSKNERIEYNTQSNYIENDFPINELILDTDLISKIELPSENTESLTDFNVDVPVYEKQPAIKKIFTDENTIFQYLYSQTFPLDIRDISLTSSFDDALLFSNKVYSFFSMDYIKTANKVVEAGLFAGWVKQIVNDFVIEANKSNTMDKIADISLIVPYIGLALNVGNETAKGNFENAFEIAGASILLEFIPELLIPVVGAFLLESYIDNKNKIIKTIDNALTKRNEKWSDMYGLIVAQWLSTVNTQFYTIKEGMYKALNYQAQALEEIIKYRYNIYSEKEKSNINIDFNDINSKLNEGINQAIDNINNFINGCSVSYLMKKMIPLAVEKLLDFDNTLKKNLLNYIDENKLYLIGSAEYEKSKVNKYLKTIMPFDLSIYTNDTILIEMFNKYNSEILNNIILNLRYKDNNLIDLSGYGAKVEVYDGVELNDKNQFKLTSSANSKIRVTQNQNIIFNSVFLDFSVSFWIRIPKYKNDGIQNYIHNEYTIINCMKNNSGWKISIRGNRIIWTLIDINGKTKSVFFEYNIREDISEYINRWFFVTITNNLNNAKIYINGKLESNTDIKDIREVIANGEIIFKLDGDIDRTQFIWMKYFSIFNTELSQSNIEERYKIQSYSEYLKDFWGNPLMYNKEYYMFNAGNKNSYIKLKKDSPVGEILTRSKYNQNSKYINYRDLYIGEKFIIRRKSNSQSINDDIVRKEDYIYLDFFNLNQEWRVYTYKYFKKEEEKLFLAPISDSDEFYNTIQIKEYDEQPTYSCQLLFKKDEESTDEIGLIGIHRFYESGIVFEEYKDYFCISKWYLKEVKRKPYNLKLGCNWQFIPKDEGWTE
Put plainly: yeast scFv FACS.

In assay [2] the target is T3, BoNT/F1 (proteolytic BoNT/F) (Clostridium botulinum, UniProt A7GBG3 1-1278).
T3 sequence: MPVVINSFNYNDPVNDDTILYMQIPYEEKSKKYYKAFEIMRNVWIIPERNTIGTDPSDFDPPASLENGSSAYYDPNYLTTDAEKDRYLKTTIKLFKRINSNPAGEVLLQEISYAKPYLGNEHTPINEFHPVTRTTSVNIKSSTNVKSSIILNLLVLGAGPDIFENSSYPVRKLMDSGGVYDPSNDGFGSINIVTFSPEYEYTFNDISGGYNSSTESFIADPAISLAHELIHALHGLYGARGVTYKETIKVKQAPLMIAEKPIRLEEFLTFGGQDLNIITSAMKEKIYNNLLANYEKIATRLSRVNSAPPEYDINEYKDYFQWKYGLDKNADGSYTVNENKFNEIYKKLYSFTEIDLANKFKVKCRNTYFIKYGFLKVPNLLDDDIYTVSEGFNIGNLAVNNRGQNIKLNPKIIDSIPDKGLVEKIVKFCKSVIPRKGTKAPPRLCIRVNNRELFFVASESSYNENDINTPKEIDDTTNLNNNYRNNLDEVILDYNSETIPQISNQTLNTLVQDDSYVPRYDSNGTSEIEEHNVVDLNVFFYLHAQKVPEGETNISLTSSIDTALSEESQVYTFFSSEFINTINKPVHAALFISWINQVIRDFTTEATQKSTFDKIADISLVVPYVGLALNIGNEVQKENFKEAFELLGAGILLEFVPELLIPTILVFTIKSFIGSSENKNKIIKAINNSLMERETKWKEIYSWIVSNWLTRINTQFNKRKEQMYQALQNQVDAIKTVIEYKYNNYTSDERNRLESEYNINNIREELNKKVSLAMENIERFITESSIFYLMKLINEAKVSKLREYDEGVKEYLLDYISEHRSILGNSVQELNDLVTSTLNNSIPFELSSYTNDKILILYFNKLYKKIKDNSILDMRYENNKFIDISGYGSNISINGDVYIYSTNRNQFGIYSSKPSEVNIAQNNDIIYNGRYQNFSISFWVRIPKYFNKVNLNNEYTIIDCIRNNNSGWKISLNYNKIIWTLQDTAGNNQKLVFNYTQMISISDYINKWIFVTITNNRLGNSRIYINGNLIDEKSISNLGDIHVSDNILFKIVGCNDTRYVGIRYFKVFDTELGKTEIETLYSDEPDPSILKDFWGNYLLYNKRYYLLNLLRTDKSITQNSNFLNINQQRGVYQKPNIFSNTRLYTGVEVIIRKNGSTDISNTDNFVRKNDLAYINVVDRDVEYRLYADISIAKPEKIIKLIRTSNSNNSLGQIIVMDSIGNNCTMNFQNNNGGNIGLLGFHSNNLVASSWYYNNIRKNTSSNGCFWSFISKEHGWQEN
Nature of the assay: yeast scFv FACS.

Assay [3] deals with T3, BoNT/F1 (proteolytic BoNT/F). Nature of the assay: yeast scFv FACS. The source holds these as a separate data set.
In assay [4] the target is BoNT/A light chain (recombinant) (Clostridium botulinum, UniProt P0DPI0 1-448). Nature of the assay: KinExA, IgG. Background: A kinetic exclusion assay measures how much of one partner remains free in solution.
In assay [5] the target is BoNT/A1 holotoxin (Hall hyper) (Clostridium botulinum, UniProt P0DPI0 2-1296). Nature of the assay: KinExA, IgG.

Positions count from the first letter of the chain named. Where two headings read alike, the source gives them in different places.

B1: 26D9 scFv (scFv)
scFv: DVQLQESGAELVKPGASVKLSCKASGFTFTDYWMHWVKQRPGQGLEWIGMIHPYNGDNNYHEKFKSKATLTVDKSSSTAYMQLSSLTTEDSAVYYCVRNDYDPYYYALDYWGQGTSLTVSAVDLKSGGSTSGSGKPGSGEGSSGSARQIVLTQSPAIMSASPGEKVTMSCRASSSVSYVYWYQQKPGSSPKPWIYRTSNLASGVPVRFSGSGSGTSYSLTISRVEAEDAATYYCQQWSSYPPTFGGGTKLEIK
notes: mouse
In general, Kd refers to the equilibrium constant for the complex coming apart. With B1, the dissociation constant Kd was 0.089 nM in assay [1] and 0.582 nM with BoNT/B1.

B2: 26B2 scFv (scFv)
scFv: DVQLQESGPELVKPGASVKISCKASGYTFADYYINWVKQSHGKSLEWIGDFNPNNGDHSYNQKFKDKATLTVDESSNTAYMELRSLTSEDSAVYYCTREFYYYFDVWGTGTSVTVSSVDLKSGGSTSGSGKPGSGEGSSGSARDIEMTQTPAIMSASPGEKVTMTCSASSSVSSRYLHWYQQKSGASPKLWIYGTSNLASGVPARFSGSGSGTSYSLTISNVEAEDAATYYCQQYHSDPLTFGAGTKLEIK
notes: mouse
B2: the equilibrium dissociation constant (Kd) in assay [1] came to 0.086 nM; in the assay with BoNT/B1 it was 0.276 nM.

B3: 26E6 scFv (scFv)
scFv: EVQLQQSGPELVKPGASVKISCKASGYTFADYYINWVKQSHGKSLEWIGDFNPNNGDHSYNQKFKDKATLTVDESSNTAYMELRSLTSEDSAVYYCTREFYYYFDVWGTGTTVTVSSVDLKSGGSTSGSGKPGSGEGSSGSARDIVMSQSPLSLPVSLGDQAFISCRFSQSIVHSNGNTYLEWYLQKPGQSPKLLIYKVSNRFSGVPDRFSGSGSGTDFTLKISRVEAEDLGVYYCFQGSHVPYTFGGGTKLEIK
notes: mouse
As for B3, the Kd in assay [1] was found to be 0.889 nM; with BoNT/B1, 4.85 nM.

B4: 28C11 scFv (scFv, V domains shown)
VH: EVQLQESGGDLVKPGGSLKLSCAASGFTFSYYGMSWVRQTPDKRLEWVATISSGGTYTYYPDSVKGRFTISRDNAKNTLYLQMSSLSSEDTAMYYCARRRSYDSVYWYFDVWGAGTSVTVSS
VL: DIVLTQSPAITAASLGQKVTITCSASSSGSYIHWYQQKSGTSPKLLIYRTSNLASGVPSRFSGSGSGTFYSLTISSVEAEDAADYFCHQWSSYPTFGGGTKLEIK
On to B4, for which the dissociation constant Kd in assay [2] and in assay [3] was 0.12 nM in each case.

B5: 6A8M IgG (antibody, V domains shown)
VH: QVQLKESGPGLVKPSQTVSLTCTVTGYSITNGNHWWNWIRQVSGSKLEWIGYISSSGYTDINPSLKSRISITRDTSKNQLFLQLNSVTTEDIATYYCARDDGYYEALDYWGQGTSVTVSS
VL: DIVMSQSPAIMSASPGEKVTLTCSASSSVSSNYLYWYQQKPGSSPKLWIYSTSNLASGVPARFSGSGSGTSYSLTISRVEAEDAATYYCQQWSSNPPTFGGGTKLEIK
notes: IgG converted from scFv
With B5, the figures for the Kd in assay [4] and in assay [5] were 4.99 nM and 0.852 nM, respectively.

B6: 26G5 scFv (scFv)
scFv: EVQLQESGPGLAKPSQTLSLTCSVTGYSITSDYWNWIRKFPGNKLEYMGYISYSGSTYYNPSLKSRISITRDTSKNQYYLQLNSVTTEDTATYYCARSFYDGYLYFDYWGQGTTVTVSSVDLKSGGSTSGSGKPGSGEGSSGSAREIVLTQSPAILSASPGEKVTMTCSASSSVSYMYWYQQKPGSSPRLLIYDTSNLASGVPARFSGSGSGTSYSLTISRVEAEDAATYYCQQWSSYPPTFGDGTRLEIK
notes: mouse
Turning to B6, the Kd in assay [1] worked out at 1.79 nM; with BoNT/B1, 3.91 nM.

B7: 6A2M IgG (antibody, V domains shown)
VH: EVQLQQSGAELVRPGTSVKLSCKSSGYTFTSDWMHWVIQRPGQGLEWIGVIDPSDSYTNYNQKFKGKATLTVDTSSSTAYMHLSSLTSEDSAVYYCARREGHYYGKAMDYWGQGTSVTVSS
VL: DIVMSQSPASLAVSLGQRATISCRASESVDYDGDSYMNWYQQKPGQPPKLLIYAASNLESGIPARFSGSGSGTDFTLNIHPVEEEDAATYYCLQSNEAPWTFGGGTKLEIK
notes: IgG converted from scFv
B7: the Kd in assay [4] was found to be 45 nM.

B8: 6A3M IgG (antibody, V domains shown)
VH: EVQLQQSGAELVKPGASVKLSCKASGYTFTSYWMHWIKQRPGQGLEWIGVIDPSDSYTNYNQKFKGKATLTVDTSSSTAYMQLSSLTSEDSAVYYCATGGNGFFDYWGQGTTLTVSS
VL: B7 VL with M4L, S5T, I110L
notes: IgG converted from scFv
For B8, the dissociation constant (Kd) in assay [4] is 10 nM.

B9: 6A4M IgG (antibody, V domains shown)
VH: EVQLQQSGAELVRPGTSVKLSCKASGYTFTSYWMHWVKQRPGQGLEWIGVIDPSDSYTNYNQKFKGKATLTVDTSSSTAYMQLSSLASEDSAVYYCARYPGNRAMDYWGQGTSVTVSS
VL: B7 VL with M4L, S5T
notes: IgG converted from scFv
In the case of B9, the dissociation constant (Kd) in assay [4] is 21 nM.

B10: 26C2 scFv (scFv)
scFv: QVQLKQSGPELVKPGASVKLSCKASGYTFTSYDINWVKQRPGQGLEWIGWIYPRDDITKYNEKFKDKATLTVDTSSSTAYMELHSLTSEDSAVYFCARGDYYGSLDYWGQGTTLTVSSVDLKSGGSTSGSGKPGSGEGSSGSARQIVLTQSPAIMSASPGEKVTMTCSASSSVSYMHWYQQKSSTSPKLWIYDTSKLASGVPGRFSGSGSGNSYSLTISSMEAEDVATYYCFQGSGYPLTFGAGTKLEIK
notes: mouse
For B10, the results for the Kd (in assay [1]; in the assay with BoNT/B1) were 7.76 nM and 23.7 nM, respectively.
